Consider 21 sequences from the DeepSol protein solubility set.

A short description of the data set: soluble on expression in E. coli; label from the status in PepcDB or PDB records.
For the sequence “MRKIVLASVVTSLVGCSMGHRDPVEAKQALNQAINETNSRQIDQLPPSVEADLMPDMDTLTASEPKTLQRFRIQAEDVEAKAFFASLVQGTEYSAAIHPAVTGRITLNLTDVTLDEALGVVRDLYGFEVVKEGKVIQVYPAGLRTVTIPVDYLQFKRTGRSLTSITTGTITNTDTNNSNSSSSSSSSISSNSSSDGSSSNSNSNRSDARGGTEIETTNESDFWPLLEKAVAQLLGGSGGQTVIVNPQAGVLTLRAYPDEIRQVNEFLGISQQRMHRQVILEAKILEVTLSDGYQQGINWSKAFSSNGANYKIGSGSITQDSNGNPITSVLPGLDAIGNLLGGQSNVVISSGSFDAVISFMATQGDLNVLSSPRVTASNNQKAVIKVGTDEYYVTDLSSVVGTGDNAQASPDITLTPFFSGISLDVTPQIDDQGNVLLHVHPAVIEVEQQTKKILYRSEEIELPLARSSIRESDSVIRAKDGDVVVIGGLMKSNTVDQVSKVPFLGDVPALGHLFRNTTKLTQKTELVILLKPTVVGVNTWQKELERSRSLLQEWFPDSQ”, the “soluble on expression in E. coli” value is on record as “not soluble”.

In the case of “MSLSHYDRMKRSSIAPYRRSNDSSNRIDKKTGKKGHGLMSKLKDLVSFGWAQEHHKDNDFSARDTGRERTNVSKGSYAAVPGGFFSSDQSSFILRERSRIMNESTMHSEADTSNAKLADFFAKKGNEPLSEIEMEGVLALMQKSRGVADESSFLGNSSRLLGDISNANASQVLRTGNISTSSALNVPNFKPSTDESRNINAKEVENSTIVSTPLKRKNFDYSSIRSPYRTVIYRFDDSNKKKISSVFDKPESSSQEVDETPKPSNSKPLSNTASALVSLLSDKDAAKESIKPMANPYTSHLTALRKSREDLPSINDKITVPKRRQRSETEDKEEAKITSSNGEAQEDTNIPEGIASRKNEEAQDSFTKYKPMRSSSLRDSVSLAHTESNNEKQMNSPKFVPAPLDKNETKETAKSDLTLTSSDKQSESKPSFSFPVNSTTKSTFMGTKKESTSPAVNSEGHHHHHH”, the “soluble on expression in E. coli” value was “soluble”.

Regarding “GSGTGAGEGHEGYVTRKHEWDSTTKKASNRSWDKVYMAAKAGRISFYKDQKGYKSNPELTFRGEPSYDLQNAAIEIASDYTKKKHVLRVKLANGALFLLQAHDDTEMSQWVTSLKAQSDSTA”, the “soluble on expression in E. coli” value is on record as “soluble”.

On to “LARPKLAVVGSRNASQMGVAAVKKIIQDLSKQFVIISGLARGIDTAAHLASLKSGGATIAVIGTGLDVHYPKENRRLQDYIAKNHLLLSEYEAQSQPLKYHFPERNRIIAGLSQGVMVAEAKIRSGSLITCERAMEEGRDVFVVPGNILDGQSEGCHHLIQEGAKCITSGFDILNEFNF”, for which the “soluble on expression in E. coli” value was “not soluble”.

In the case of “MEAVAEHDFQAGSPDELSFKRGNTLKVLNKDEDPHWYKAELDGNEGFIPSNYIRMTECNWYLGKITRNDAEVLLKKPTVRDGHFLVRQCESSPGEFSISVRFQDSVQHFKVLRDQNGKYYLWAVKFNSLNELVAYHRTASVSRTHTILLSDMNVETKFVQALFDFNPQESGELAFKRGDVITLINKDDPNWWEGQLNNRRGIFPSNYVCPYNSNKSNSNVAPGFNFGN”, the “soluble on expression in E. coli” value is on record as “not soluble”.

Take “MGSQVQKSDEITFSDYLGLMTCVYEWADSYDSKDWDRLRKVIAPTLRIDYRSFLDKLWEAMPAEEFVGMVSSKQVLGDPTLRTQHFIGGTRWEKVSEDEVIGYHQLRVPHQRYKDTTMKEVTMKGHAHSANLHWYKKIDGVWKFAGLKPDIRWGEFDFDRIAEDGRETFGDK”: the “soluble on expression in E. coli” value is recorded as “soluble”.

As to “MGSDKIHHHHHHMPINSFENYPMTWKPKLDNRKPPIYKTLAMLLEEDIKRGNLNPGDKLPPQRELADFLDLNLSTITRAFKLCEEKGLICAKVGKGTFISSDVNVSNTLLYQTESKDIIELGTVHPPYEQNTYIIDFIKNVLKQPEMDRFLQYMSPSGTYMQKKSIAKWIERNNVYTSEENILLSTGGQNAICATLLGLFKAGDRIATDSLSFSGIKSIAKMIGIQLVPIPQENNEISIEYLESYCKNENIKGIYLIPDYHNPTTHTMSDLSRKKIAKIAKQYNIIIIEDAINSIFRDGIQTPIFSLASDNTIYIFSTSKFLCAGLRVAFVVAPKRYIENLENALYNMNLMVSPFTAEIVHRLLYSPIIDKIIEEKRDAIIERNEVADKVLSDYNLIGDKNCSFRWLLLPDELDGKSFEISAKNLGVQVYCAERFSVGNSTVPKAVRICVTAPKDVEELEKGLNIIKSLLKS”, the “soluble on expression in E. coli” value is “not soluble”.

As to “MYRFLSGIKVVEIAGLAPVPHCGMMLADFGADVTVIDKKNPAIEQRLNRGKTMKQLDLKNPEDIKKVRDLCQTSDVLLDPYRPGTLEKMGLDPSTLWNNNKGLIICKISGYGQTGRMSQETGHDINYVALSGMLPTFSGVNATRPWPPANMLADFAGGGLSAAFGILSAIYARSHNGGKGCLLDCSMTEGVAYLSSFVQHYYDQPNLFTDKYALFSGECPIYRTYKTKDDKFVAVGAVEPKFYQNLFKLLNVDGRDLFVNPGKITEDLESRFLQKTRDKWANIFKGQECCVTPVLDIHEVGSYGQHVDRNSFTKTSSNWIANPSPRVWTQDELAALSSKK”, the “soluble on expression in E. coli” value is given as “not soluble”.

Regarding “MKDLGAEHLAGHEGVQLLGLLNVYLEQEERFQPREKGLSLIEATPENDNTLCPGLRNAKVEDLRSLANFFGSCTETFVLAVNILDRFLALMKVKPKHLSCIGVCSFLLAARIVEEDCNIPSTHDVIRISQCKCTASDIKRMEKIISEKLHYELEATTALNFLHLYHTIILCHTSERKEILSLDKLEAQLKACNCRLIFSKAKPSVLALCLLNLEVETLKSVELLEILLLVKKHSKINDTEFFYWRELVSKCLAEYSSPECCKPDLKKLVWIVSRRTAQNLHNSYYSVPELPTIPEGGCFDESESEDSCEDMSCGEESLSSSPPSDQECTFFFNFKVAQTLCFPSLEHHHHHH”, the “soluble on expression in E. coli” value is “not soluble”.

As to “MTGWGDHDSLYINPYENRNKLRTYSEYFPIVEVDSSFYAMQPARNYTKWAMETPKDFSFIVKAYQGMTGHMKGEIPFSTFDEMFDVYKQSILPLIEAGKLKTILFQYPPWFDCKKKNVDFLRYTKEKMEGLPCAIEFRNQTWFYPEMRDRTLQFLEQEKWIHTICDEPQAGIGSVPLVLEVTNSDMALIRFHGRNVHGWLDKGENWRAVRCLYRYNNKELEEWVERLEQLKKKTKDIYVLFNNNSGGDAADNAKQLMKMMNITYGEPKPEQLNFFE”, the “soluble on expression in E. coli” value is given as “not soluble”.

As for “MAHHHHHHMEPDDGVASWMELREEGNKAFKSEAYANAVKLYSEAIKLNSKEAALFSNRSAAYIKMKEYQKAVLDAEAAIANDKTFVKGYSRLHNALCHLGRFREATQKLKEALVVLEACGASPEDKKQIQELHRTAEEGQRGFEAGQRLLEERNFLAAERELVKAAQLFPDCAIVGIMLGESQASLYPERVIRSLTALSSAHADDTYYLYVRALASYYSGQSGLNNAQSILRHTIELDPDNRKATELLKKIRAVESQKTEGNAAFKEKRFTAAVNCYKAAIEVDPSNIRMTAVLRGNQAAAKMELKEYSSALLDCDFAIKNGAESAKLYARRSRIHEALENYDDALRDIQRAAEMDPSYNGEAQQMKISAKRAKRKDYYKILGLPQGESDDSSIKRAYKKGCLQWHPDKWAHATEEEKAHAEKMFKEVGEAFSILSDPQKKRLYDSGQLDDASSPGGTSDFPARQADIFQMMNMMFQGGCGEGGMPSGFSFTVDPRSRRQKQTFHYR”, the “soluble on expression in E. coli” value is on record as “soluble”.

On to “MGANGSTEDYNAIAEETRNYQIQEAARRKEHLEALERQDAKRRETLAETTRAQLAAAEAEQKRKDEMQQKMMESNLAAQVARNKRIDNAQNQQNLNIEKEIENSNNWLDKQRTANQAVMAQRYTDHQNVLTREKERLTETEIRLENNLVDAKKMLENTQNQFNDDKIGYHEKKVQQMNENASKIELLVSQTTNLVLEQEKNDIVHKLAIQGMEQRTILNRGAIIQAQSLDSVEREFIDAVNSTRQKGNEVANSISRMGSYAFQLKPEDPVWSRTSQVAYCKKEIQKVDLLLEVLSDNTEEISKQRENRNQEVLRCHAVACLIQNAITTVRNSLNQFGASLQENTFTNCIGYYTDLLEKNKTLTDVIVQLPAVSRSNHTTSAIMYSSQRFAIDVQNDRLALEQKGQLALQNMINGNGGNTT”, for which the “soluble on expression in E. coli” value is listed as “not soluble”.

Consider “MGSDKIHHHHHHMSIFANLFKKQADADAKVVGNVEDFVSLTRVYFQSVIAVNLGITNIRFLPDVANFKRLFKVATQGGKLGLAEKSASRKMLMQDYGISESFFKEIDTSIKKNCRTQNDVQAYLFMYQGFSSDLMMLMGNLMQWKFRMPAIFKKALRSMTEKTVHDVCTKTVWKADDVHKTAAAVRQYKERLGFSEQWMSEYVYNIVLLAKKEPKHKDEEAKAK”, for which the “soluble on expression in E. coli” value is “not soluble”.

In the case of “MAHHHHHHMKYMPQRPCIGICQGCWTVQLGGVNQYIQIWRYENLKHRYDCRKQVEQDQEWLRTYVKPADDMMISKSNTLLRLVYREGNASTQSYKYLMQVSPHKEVELSGPSATLAATFQVIVGEEEGKYIHLVKGHKLDDVIPVTPTLGCSSKIMGPVRWSSTMNCLWR”, the “soluble on expression in E. coli” value was “not soluble”.

Regarding “SEKMKLLYVYDPLCGWCYGFGPVVEKIEKNYKGTVDVEIISGGMVMGNRIAPIGNMSEYILDAIPRLQRMTGIEFGQPYITLLKEGSYVTSSEKPSIALCVYKSFTAERAVEYGHAIQTSFYKEGKDLNQDVLYADLATSYGIDRAAFLKRMKDSVYFNQAHEEFKRAAALGVTGFPTLLLKQENGYTALTEGYATYESIEKQLQKHVKAAGTK”, the “soluble on expression in E. coli” value was “not soluble”.

“MIRFEHVSKAYLGGRQALQGVTFHMRPGEMAFLTGHSGAGKSTLLKLICGIERPSAGKIFFSGHDITRLKNREVPFLRRQIGMIFQDHHLLMDRTVYDNVAIPLIIAGASGDDIRRRVSAALDKVGLLDKARNFPIQLSGGEQQRVGIARAVVNKPAVLLADEPTGNLDDALSEGILRLFEEFNRVGVTVLMATHDIGLISRRSYRQLVLSDGHLHGGLANE”: the “soluble on expression in E. coli” value is “not soluble”.

Consider “MGSDKIHHHHHHMTMVLDQVVPFGRSMDEYIKIFNLTDADLNKKIIGIGDGPASFNAEMTRQGKSVISVDPLYQFSGDEILQRFNEVLDNIINQVKATSNNWVWSYHKSPDDLRHNRVKVIREFLSDYENGKKSNRYIVDEFPKLKFKTQEFEIALCSHLLFLYSDHLDYDFHLNSIGEMLRIAKEIRIFPLITLMWKHSQHLDEIVKHYTSIGYKIDIENVEYELQPGGNKMLKITRDFYKNHNL”, for which the “soluble on expression in E. coli” value was “not soluble”.

For “MSLTRQMNILLVEDDDLDAMMIKRAMAQVAPDAHLIRATDGVEALEIVQSNRVEDPYFILLDVNMPRMNGHEFLKELRASSEHSDTMVFMFTTSESARDIARAYQERANGYIVKPHGKAAMNSILDTLQRYWTTCEEGHHHHHH”, the “soluble on expression in E. coli” value is reported as “soluble”.

Regarding “MEKVMIELEEQVNQLINQILLKAENQYELLIGQCRSKVKLTNTQEHILMLLSEGQKTNSELAKALNVSQAAVTKAVKTLVKEGMLEGKKDKDDGRVTYFVLTQEAQPIAQEHKEHHQETLGVYRSVLDQFDHQERQVIGRFLIKLAEKIEE”, the “soluble on expression in E. coli” value is “not soluble”.

For “RHLVVPLNRLRDRADALRADELESTPLAAPLAARRDELGELAQALEHMAERLRLSLAQQRLLLRTLSHELRTPLARLRIAHDSELPPEQLRQRLDREIGDMQRLLEDTLDLAWMDTERPQLPTEPVLALSVWEALRDDACFESGWDPARLPCRLGVDCRVEVHLDSLAQAMENLLRNAIRHSPEDGTVSLDGEREGDFWHLRLQDQGPGVAEDQLERIFLPYQRLDDSAGEGFGLGLAIARRAIELQGGRLWASNGKPGLC”, the “soluble on expression in E. coli” value is listed as “not soluble”.

Consider “MSLAHEMIGTQIVTERLVALLESGTEKVLLIDSRPFVEYNTSHILEAININCSKLMKRRLQQDKVLITELIQHSAKHKVDIDCSQKVVVYDQSSQDVASLSSDCFLTVLLGKLEKSFNSVHLLAGGFAEFSRCFPGLCEGKSTLVPTCISQPCLPVANIGPTRILPNLYLGCQRDVLNKELMQQNGIGYVLNASNTCPKPDFIPESHFLRVPVNDSFCEKILPWLDKSVDFIEKAKASNGCVLVHCLAGISRSATIAIAYIMKRMDMSLDEAYRFVKEKRPTISPNFNFLGQLLDYEKKIKNQTEGHHHHHH”, for which the “soluble on expression in E. coli” value is given as “soluble”.
